Assays:
AND TCR = assay: single molecule tracking of agonist pMHC:TCR dwell times in hybrid live T cell-supported membrane junctions; format: binding, mouse; settings: AND T cells, 37 °C, compared with same-day control
From the text: (§1) We probe agonist pMHC:TCR complex dynamics in hybrid live cell—supported membrane junctions([Grakoui et al., 1999]) (Figure 1A). The supported membrane is functionalized with MHC (IE^k) and intercellular adhesion molecule-1 fusion with a blue fluorescent protein (ICAM1-TagBFP), both linked to the membrane via C-terminal poly-His tag binding to Ni-chelating lipids ([Nye and Groves, 2008]). The MHC is loaded with peptide (moth cytochrome c [MCC] agonist or null), which is covalently coupled in a 1:1 stoichiometry (verified by HPLC) to the photostable fluorophores Atto647N or Atto488 using maleimide-thiol chemistry. […]
(§2) Since the slow-moving pMHC can be clearly resolved from the fast moving component, the lifetime of molecules in this bound state is directly observable. […] Unbinding and photobleaching are indistinguishable in fluorescence methods such as this. […]
(§3) TIRF experiments were performed on an inverted microscope (Nikon Eclipse Ti; Technical Instruments, Burlingame, CA) using a custom-built laser launch with 488 nm (Sapphire HP; Coherent Inc., Santa Clara, CA) and 640 nm (Cube; Coherent Inc.) diode lasers, as described previously ([Smith et al., 2011]). Laser powers measured at the sample were 0.8 mW (640 nm) and 0.5 mW (488 nm) for 500 ms exposures and 4.4 mW (640 nm) for 17.5 ms exposures. […]

5c.c7 TCR = assay: as above; format: binding, mouse; settings: 5c.c7 T cells, 37 °C, compared with same-day control
From the text: as §1, §2, §3

[1] = target: MCC agonist pMHC: MHC class II I-E^k loaded with MCC(C) peptide labelled with Atto488 (not stated | moth) (UniProt P04230); assay: single molecule fluorescence tracking (TIRF); pMHC (Atto488 on the peptide) tethered by His tags to a Ni-NTA supported lipid bilayer with ICAM1-TagBFP; live primary T cell blasts added; 500 ms exposure, 1-10 s time lapse; dwell time of the slow-moving pMHC corrected for photobleaching; 37°C, imaging buffer; also at 100 molecules/µm^2 and with Latrunculin A
[2] = target: MCC agonist pMHC: MHC class II I-E^k loaded with MCC(C) peptide labelled with Atto647N (not stated | moth) (UniProt P04230); assay: two-color single molecule fluorescence tracking (TIRF); agonist pMHC (MCC-Atto647N) on a supported lipid bilayer; live T cells expressing ZAP70-EGFP; 1 frame/s, 500 ms integration; pair pMHC and TCR
[3] = target: phosphorylated ITAM domains on the cytoplasmic side of TCR engaged with pMHC (TCR complex, 10 ITAM domains) (mouse (endogenous in primary T cells)); assay: two-color single molecule fluorescence tracking (TIRF); ZAP70-EGFP intensity integrated over a 315 nm square centred on each pMHC:TCR complex in live T cells; change-point analysis; intensity calibrated with single ZAP70-EGFP molecules of the same cell; dwell times not corrected for photobleaching

## C/C1=C/C(=O)O[C@@H]2C[C@@H](CC[C@H](C)/C=C\C=C\CC1)O[C@@](O)([C@@H]1CSC(=O)N1)C2 [Latrunculin A]
AND TCR
  effect of cytoskeleton disruption on ⟨τoff⟩ of agonist pMHC: moderately increases
5c.c7 TCR
  effect of cytoskeleton disruption on agonist pMHC binding kinetics: no significant effect

## AND TCR
[1]
  mean dwell time 〈τoff〉: 53.8 s
[2]
  stoichiometry N: 1

## enhanced green fluorescent protein fused to CD3 zeta-chain-associated protein of 70 kDa (Zap70-EGFP) (from UniProt P43404 1-618) (enzyme)
[3]
  ZAP70 molecules (EGFP-tagged and endogenous) per feature (ZAP70 molecules per feature): 6
  molecular binding dwell time: 12 to 107 s
  stoichiometry N (ZAP70-EGFP per feature): 2.9

From publication PMC3701909, “Direct single molecule measurement of TCR triggering by agonist pMHC in living primary T cells” (eLife, 2013)
